Positions count from the first letter of the chain named.
B1: propeptide of RmL (wild type) (peptide)
peptide: VPIKRQSNSTVDSLPPLIPSRTSAPSSSPSTTDPEAPAMSRNGPLPSDVETKYGMALNATSYPDSVVQAM
notes: also called RmL WT propeptide
B2: propeptide of RMLPP0006 (N-63Q N-13Q) (peptide)
peptide: B1 peptide with N8Q, N58Q

Legend:
[1] = target: T1, Rhizomucor miehei lipase (RmL) mature protein (Rhizomucor miehei, UniProt P19515 95-363); assay: native PAGE, column HMW band (taken by the filing as lipase associated with propeptide)
T1 construct: Expressed in Aspergillus oryzae ToC1512 from the gene with its prepropeptide; The mature part is the same in all RMLPP variants; also called RmL WT; mature protein of the lipase
T1 sequence: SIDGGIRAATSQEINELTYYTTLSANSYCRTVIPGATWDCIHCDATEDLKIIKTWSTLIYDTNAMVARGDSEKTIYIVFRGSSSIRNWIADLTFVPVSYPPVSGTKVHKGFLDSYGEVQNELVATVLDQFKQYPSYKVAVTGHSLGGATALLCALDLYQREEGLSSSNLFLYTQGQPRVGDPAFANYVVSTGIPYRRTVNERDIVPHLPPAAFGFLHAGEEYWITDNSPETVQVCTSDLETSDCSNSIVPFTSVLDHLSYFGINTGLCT
Description: (§1) The native PAGE was casted by first pouring the Resolving gel (4.0 mL 30% Acrylamide (Acrylamide-Bis-acrylamide solution); 2.5 mL 1.5M Tris (pH8.8); 0.1 mL 10% Ammonium per sulphate (APS); 0.004 mL TEMED; 3.3 mL water), followed by overlaying with butanol-water and allowing to polymerize for 30-45 minutes. The butanol-water was washed off and then the stacking gel (1.7 mL 30% Acrylamide (Acrylamide-Bis-acrylamide solution); 1.25 mL 1.5M Tris (pH6.8); 0.1 mL 10% Ammonium per sulphate (APS); 0.01 mL TEMED; 6.8 mL water), was poured over the polymerized resolving gel, immediately followed by insertion of the comb. This was allowed to polymerize for approx. 15 minutes. The protein sample (culture supernatant) was mixed with loading dye (5× composition (2 mL): 0.62 mL 1M Tris pH6.8; 0.1 mL 1% Bromophenol blue; 1.0 mL Glycerol; 0.28 mL Water) and loaded in to the wells of the native PAGE. The gel was run in SDS-free electrophoresis buffer (3.0 g Tris base; 14.4 g Glycine; water up to 1 L) at constant current of 25 mA.

[2] = target: T1, Rhizomucor miehei lipase (RmL) mature …; assay: native PAGE of culture supernatant; HMW band, taken by the filing as lipase associated with propeptide
Description: as §1

| Binder | binding result [1] | binding result [2] |
| --- | --- | --- |
| B1 | binds | – |
| B2 | – | no binding |

Source: patent US20170137795A1 (NOVOZYMES A S, published 2017)
